Laboratory results from patent publication US7037703B2, “COD URACIL-DNA GLYCOSYLASE, GENE CODING THEREFORE, RECOMBINANT DNA CONTAINING SAID GENE OR OPERATIVE PARTS THEREOF, A METHOD FOR PREPARING SAID PROTEIN AND THE USE OF SAID PROTEIN OR SAID OPERATIVE PARTS THEREOF IN MONITORING OR CONTROLLING PCR” (Biotec Pharmacon ASA, priority 2000, dated 2006).
Like-named read-outs stand apart in the source and are kept apart here.

What was measured:
[1] = tested on: cUNG (Atlantic cod uracil-DNA glycosylase); test: Product inhibition of cUNG with free uracil; type: biochemical, Atlantic cod (Gadus morhua)
Method: Different concentrations of uracil was added to the assay mixture and the assay performed as described in material and methods. Uracil-DNA glycosylase activity was measured in a final volume of 20 μl, containing 70 mM Tris/HCl, 10 mM NaCl, 1 mM EDTA, 100 μg/ml BSA and 230 ng nick-substrate or 71 ng PCR-substrate. The reaction mixture was incubated 10 min at 37° C., and terminated with the addition of 20 μl of ice cold single stranded calf thymus DNA (1 mg/ml) and 500 μl 10% (w/v) TCA. Samples were incubated on ice for 15 min, and centrifuged at 16,000 g for 10 min. Supernatants with acid soluble ^3H-uracil were analyzed using a liquid scintillation counter. Activity measurements using PCR-substrate were performed with 6.65×10^−4 U of purified cUNG. Various concentrations of uracil (0, 1, 2 and 5 mM) or Ugi-inhibitor (1.25×10^3 U to 2.00×10^2 U) were added to the assay mixtures (on ice). Activity was then measured as described under standard assay conditions.

[2] = tested on: cUNG (Atlantic cod uracil-DNA glycosylase); test: Inhibition of cUNG with uracil-DNA glycosylase inhibitor (Ugi); type: biochemical, Atlantic cod (Gadus morhua); conditions: 6.65×10^−4 U cUNG, 1.25×10^3 U to 2.00×10^2 U Ugi
Method: 6.65×10^−4 U of cUNG was incubated with 1.25×10^3 U to 2.00×10^2 U of Ugi using standard assay conditions, as described in material and methods. One Unit of Ugi inhibit one Unit of UNG-activity, where the UNG-activty is defined as releasing 60 pmol of uracil per min at 37° C.
Uracil-DNA glycosylase activity was measured in a final volume of 20 μl, containing 70 mM Tris/HCl, 10 mM NaCl, 1 mM EDTA, 100 μg/ml BSA and 230 ng nick-substrate or 71 ng PCR-substrate. The reaction mixture was incubated 10 min at 37° C., and terminated with the addition of 20 μl of ice cold single stranded calf thymus DNA (1 mg/ml) and 500 μl 10% (w/v) TCA. Samples were incubated on ice for 15 min, and centrifuged at 16,000 g for 10 min. Supernatants with acid soluble ^3H-uracil were analyzed using a liquid scintillation counter.
Activity measurements using PCR-substrate were performed with 6.65×10^−4 U of purified cUNG. Various concentrations of uracil (0, 1, 2 and 5 mM) or Ugi-inhibitor (1.25×10^3 U to 2.00×10^2 U) were added to the assay mixtures (on ice). Activity was then measured as described under standard assay conditions.
Target sequence in this assay (as listed by the source): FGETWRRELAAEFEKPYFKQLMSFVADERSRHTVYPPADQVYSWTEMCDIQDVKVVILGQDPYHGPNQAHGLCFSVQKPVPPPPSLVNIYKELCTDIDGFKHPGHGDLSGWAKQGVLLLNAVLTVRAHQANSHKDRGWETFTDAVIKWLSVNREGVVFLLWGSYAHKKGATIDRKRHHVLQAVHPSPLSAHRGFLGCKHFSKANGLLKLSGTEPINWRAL

[3] = tested on: PCR generated uracil-containing DNA substrate; test: Determination of temperature optimum / temperature profile; type: biochemical
Method: Due to prolonged incubation of the enzyme sample on ice during the experiment, activity is corrected with respect to the stability of the enzyme, as described in material and methods.
Enzyme activity was measured as described in material and methods. The percent UNG activity is set relative to the highest value for cUNG (45° C.) and rhUNG (50° C.) respectively. Due to prolonged incubation of the enzyme samples on ice during the experiment, activity is corrected with respect to the stability of the enzymes, as described in material and methods.
(§1) Assays were done in a volume of 20 μl as described in standard assay using the PCR generated substrate. The assay mixtures were as described in standard assay conditions and were adjusted to pH 8.0 for all temperatures. The temperature range used was 5° C. to 60° C. The activity was measured in a sequential manner with 15 min intervals, between each temperature. The enzymes used were diluted in standard dilution buffer (5 mM Tris/HCl, 10 mM NaCl, 1% (v/v) glycerol, pH 8.0) and placed on ice.

[4] = Effect of pH on stability (residual UNG activity); type: physicochemical
Method: In the different pH-buffer, 1 U of cUNG (Δ) or rhUNG (□) were incubated for 10 minutes at 37° C. Then 5 μl aliquotes were transfered to the assay mixture, and residual activity was measured using standard assay conditions as described in materials and methods. One hundred percent activity was measured directly from a sample diluted at pH 8.0 without any incubation step.
pH: UNG (0.01 U) was preincubated (in a total volume of 75 μl) for 10 min at 37° in buffers containing 10 mM buffer, 10 mM NaCl, 1 mM EDTA, 1% glycerol, with pH ranging from 9.5-6.5 with 0.5 pH unit intervals using diethanolamine/HCl (9.5-8.5), Tris/HCl (8.5-7.5), MOPS/NaOH (7.5-6.5) and MES/NaOH (6.5-5.5) as buffer components. Aliquots of 5 μl were transferred to the assay mixtures and residual activity was measured using standard assay conditions.

[5] = tested on: PCR generated uracil-containing DNA substrate; conditions: literature value (64); cited from earlier work
[6] = Effect of temperature on stability (half-life of UNG activity); type: physicochemical
Method: Enzyme (1 U) were incubated at 50° C., 37° C., 25° C. and 4° C., and 5 μl aliquotes were transferred to the assay mixture after different time intervals, and standard assays were performed as described in material and methods. Half-lifes were determined to 0.5 min (50° C.), 20 min (37° C.), 60 min (25° C.) and 2 h (4° C.) for cUNG and 8 min (50° C.) 30 min (37° C.), 150 min (25° C.) and 2.6 h (4° C.) for rhUNG.
as §1
Temperature: UNG (0.01 U) was preincubated (in a total volume of 75 μl) in 10 mM Tris/HCl, 50 mM NaCl, 1 mM EDTA, 1% glycerol, pH 8.0 (adjusted at each temperature).

[7] = cited from earlier work; for half-life: literature (45)

With O=c1cc[nH]c(=O)[nH]1 [uracil] the “inhibition of cUNG activity” value ([1]; 1 mM uracil in the assay mixture) was “more than 50%” and the “inhibition of cUNG activity” value ([1]; 5 mM free uracil in the assay mixture) was 78%.

B1: Ugi: Bacillus subtilis bacteriophage PBS2 UDG-inhibitor, obtained from New England Biolabs (protein)
chain: MTNLSDIIEKETGKQLVIQESILMLPEEVEEVIGNKPESDILVHTAYDESTDENVMLLTSDAPEYKPWALVIQDSNGENKIKML
With B1 the “effect of Ugi on cUNG activity” value [2] was “clearly inhibited”.

B2: rhUNG: purified recombinant mesophilic human UNG (UNGΔ84) provided by Dr. Krokan (protein, UniProt P13051 85-304, looked up, fragment)
chain: LAARNVPVGFGESWKKHLSGEFGKPYFIKLMGFVAEERKHYTVYPPPHQVFTWTQMCDIKDVKVVILGQDPYHGPNQAHGLCFSVQRPVPPPPSLENIYKELSTDIEDFVHPGHGDLSGWAKQGVLLLNAVLTVRAHQANSHKERGWEQFTDAVVSWLNQNSNGLVFLLWGSYAQKKGSAIDRKRHHVLQTAHPSPLSVYRGFFGCRHFSKTNELLQKSG
For B2, the “temperature of highest activity value in temperature profile” value ([3]; FIG. 6, 5-60° C.) was 50 °C, the “relative activity compared with cUNG” value ([3]; temperatures higher than 45° C.) was “higher relative activity” and the residual activity ([4]; pH 10.0, 10 min at 37° C.) was 66%. For the same molecule, the “pH range in which most stable” value ([4]; preincubated 10 min at 37° C.) was 7.0-9.5, the temperature optimum [5] was 45 °C and the half-life ([6]; 4° C., pH 8.0) was 156 min. For the same molecule, the half-life ([6]; 25° C., pH 8.0) was 150 min, the half-life ([6]; 37° C., pH 8.0) was 30 min and the half-life ([6]; 50° C., pH 8.0) was 8 min. For the same molecule, the half-life ([6]; enzyme in standard dilution buffer on ice) was 156 min.

B3: E. coli UNG: commercially available UNG (or UDG) from Escherichia coli used in carry-over prevention (protein, UniProt P12295 2-229, looked up)
Uracil-DNA glycosylase: ANELTWHDVLAEEKQQPYFLNTLQTVASERQSGVTIYPPQKDVFNAFRFTELGDVKVVILGQDPYHGPGQAHGLAFSVRPGIAIPPSLLNMYKELENTIPGFTRPNHGYLESWARQGVLLLNTVLTVRAGQAHSHASLGWETFTDKVISLINQHREGVVFLLWGSHAQKKGAIIDKQRHHVLKAPHPSPLSAHRGFFGCNHFVLANQWLEQRGETPIDWMPVLPAESE
For B3, the half-life ([7]; 40° C.) is given as 27 min, the half-life ([7]; 45° C.) is given as 8 min and the “inactivation by heat treatment / reactivation” value ([7]; literature (60), (45)) is given as “not completely inactivated”.
